Source: article PMC12167710 (2024)

B1: anti-mouse κ VHH (TP1170) (VHH)
VHH: QVQLVESGGGWVQPGGSLRLSCAASGFTFSDTAMMWVRQAPGKGREWVAAIDTGGGYTYYADSVKGRFTISRDNAKNTLYLQMNSLKPEDTARYYCAKTYSGNYYSNYTVANYGTTGRGTLVTVSS
B2: anti-human λ VHH (HuFab lambda 1) (VHH)
VHH: QVQLQDSGGGLVQPGGSLRLSCAASGFTLDYYAIGWFRQAPGKEREGVSCISSSDGSSDGYTYYADSVKGRFTISRDNAKNTVYLQMNNLKPEDTAVYYCAARLFGVATTDPSYFDSWGQGTQVTVSS

Assays:
[1] = molecular target: recombinant mouse IgG1κ isotype control antibody (clone P3.6.2.8.1) (mouse, UniProt P01868 = IgG part); assay: BLI
[2] = molecular target: recombinant human IgG1λ isotype control antibody (clone AbD00264_hIgG1) (human, UniProt P01857 = IgG part); assay: BLI

Binder | koff [1] [s⁻¹] | koff [2] [s⁻¹]
B1 | 1.18e-05 | 
B2 |  | 0.000246
